Measurements from US20170247475A1 (Boehringer Ingelheim, published 2017).
Where two headings read alike, the source gives them in different places.

What was measured:
[1] = target: T1, recombinant human VEGF165 (human, UniProt P15692-4 27-191); experiment: VEGF/VEGFR2 competition AlphaScreen
T1 construct: also called hVEGF165; rhVEGF165
Description: (§1) Finally, streptavidin donor beads (20 μg/ml) are added and after 1 hour of incubation in the dark, fluorescence is measured on the Envision microplate reader.

[2] = target: T1, recombinant human VEGF165; experiment: ka1; SPR Biacore T100, hVEGF165 on chip, Two State Reaction model
Description: (§2) Samples are injected for 2 min and allowed to dissociate up to 20 min at a flow rate of 45 μI/min. In between sample injections, the chip surface is regenerated with 100 mM HCl. HBS-EP+(Hepes buffer pH7.4+EDTA) is used as running buffer. Binding curves are fitted using a Two State Reaction model by Biacore T100 Evaluation Software v2.0.1.
(§3) ^{(a)}KD = kd1/kₐ₁ * (kd2/(kd2 + kₐ₂)) ^{(b)}Curves are fitted using a Two State Reaction model by Biacore T100 Evaluation Software v2.0.1

[3] = target: VEGF; experiment: cell-based or functional assay
[4] = target: VEGF; experiment: cell-based or functional assay; remark: listed apart in the source
[5] = target: T1, recombinant human VEGF165; experiment: binding ELISA, coated rhVEGF165
[6] = target: T1, recombinant human VEGF165; experiment: VEGF165/hVEGFR1-Fc competition AlphaScreen
Description: as §1

[7] = target: T2, human VEGF-C (human, UniProt P49767 103-227); experiment: binding ELISA on coated VEGFC
T2 construct: also called hVEGF-C
T2 sequence (looked up): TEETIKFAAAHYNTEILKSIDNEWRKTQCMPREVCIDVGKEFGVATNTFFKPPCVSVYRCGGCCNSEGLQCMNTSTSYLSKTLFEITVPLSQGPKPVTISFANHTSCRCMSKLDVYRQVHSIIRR
Description: (§4) Binding to VEGFB, VEGFC, VEGFD and PIGF is assessed via a solid phase binding ELISA. In brief, VEGFB, VEGFC, VEGFD and PIGF (R&D Systems, Minneapolis, Minn., USA) are coated overnight at 4° C. at 1 μg/mL in a 96-well MaxiSorp plate (Nunc, Wiesbaden, Germany). Wells are blocked with a casein solution (1% in PBS). […] As positive controls serial dilutions of the appropriate receptors are taken along and detected with horseradish peroxidase (HRP)-conjugated goat anti-human IgG, Fc specific antibody (Jackson Immuno Research Laboratories Inc., West Grove, Pa., USA) and a subsequent enzymatic reaction in the presence of the substrate TMB (3,3′,5,5′-tetramentylbenzidine) (Pierce, Rockford, Ill., USA).

[8] = target: T1, recombinant human VEGF165; experiment: VEGF/VEGFR1 competition AlphaScreen
Description: as §1

[9] = target: T3, human PIGF (human, UniProt P49763-2 21-149, limits assumed); experiment: binding ELISA on coated PIGF
T3 construct: also called hPIGF; PLGF
T3 sequence (looked up): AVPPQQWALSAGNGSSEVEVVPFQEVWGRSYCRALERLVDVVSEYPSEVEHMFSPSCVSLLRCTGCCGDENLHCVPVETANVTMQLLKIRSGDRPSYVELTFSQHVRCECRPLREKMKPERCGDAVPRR
Description: as §4

[10] = target: T1, recombinant human VEGF165; experiment: kd1; SPR Biacore T100, hVEGF165 on chip, Two State Reaction model
Description: as §2, §3

[11] = target: T1, recombinant human VEGF165; experiment: SPR Biacore T100, Two State Reaction model; KD = kd1/ka1 * (kd2/(kd2 + ka2))
Description: as §2, §3

[12] = target: T1, recombinant human VEGF165; experiment: VEGF165/hVEGFR1-Fc competition ELISA
[13] = target: T1, recombinant human VEGF165; experiment: hVEGF165/hVEGFR2-Fc competition ELISA
[14] = target: T4, human VEGF-B (human, UniProt P49765-2 22-188, limits assumed); experiment: binding ELISA on coated VEGFB
T4 construct: also called hVEGF-B
T4 sequence (looked up): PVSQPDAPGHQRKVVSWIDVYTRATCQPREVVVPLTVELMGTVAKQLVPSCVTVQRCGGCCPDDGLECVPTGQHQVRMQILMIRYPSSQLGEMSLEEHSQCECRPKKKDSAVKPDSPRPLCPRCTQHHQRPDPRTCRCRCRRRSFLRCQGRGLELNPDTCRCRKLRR
Description: as §4

[15] = target: T5, recombinant human VEGF121 (human, UniProt P15692-9 27-147); experiment: binding ELISA, coated rhVEGF121
T5 construct: also called rhVEGF121; hVEGF121
T5 sequence (looked up): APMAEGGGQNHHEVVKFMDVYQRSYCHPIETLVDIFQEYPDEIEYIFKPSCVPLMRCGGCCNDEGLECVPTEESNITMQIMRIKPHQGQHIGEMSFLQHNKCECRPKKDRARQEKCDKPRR
Description: Binding to recombinant human VEGF121 is assessed via a solid phase binding ELISA. Briefly, recombinant human VEGF121 (R&D Systems, Minneapolis, Minn., USA) is coated overnight at 4° C. at 1 μg/mL in a 96-well MaxiSorp plate (Nunc, Wiesbaden, Germany). Wells are blocked with a casein solution (1% in PBS).

[16] = target: T1, recombinant human VEGF165; experiment: SPR Biacore T100, hVEGF165 on chip, Two State Reaction model
Description: as §2, §3

[17] = target: T6, recombinant mouse VEGF164 (mouse, UniProt Q00731-2 27-190); experiment: binding ELISA on coated mouse VEGF164
T6 construct: biotinylated in the mVEGFR2 AlphaScreen; also called rmVEGF164; mVEGF164
T6 sequence (looked up): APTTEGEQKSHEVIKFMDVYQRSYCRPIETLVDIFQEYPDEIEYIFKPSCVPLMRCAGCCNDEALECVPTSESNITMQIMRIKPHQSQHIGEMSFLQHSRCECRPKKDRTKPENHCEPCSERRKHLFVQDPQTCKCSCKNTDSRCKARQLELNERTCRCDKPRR
Description: Cross-reactivity to mouse VEGF164 is determined using a binding ELISA. […] Wells are blocked with a casein solution (1% in PBS). […] A mouse VEGF164 reactive mAb is included as positive control.

[18] = target: T1, recombinant human VEGF165; experiment: hVEGF165/hVEGFR2-Fc competition AlphaScreen
Description: as §1

[19] = target: T7, human VEGF-D (human, UniProt O43915 93-201); experiment: binding ELISA on coated VEGF D
T7 construct: also called hVEGF-D
T7 sequence (looked up): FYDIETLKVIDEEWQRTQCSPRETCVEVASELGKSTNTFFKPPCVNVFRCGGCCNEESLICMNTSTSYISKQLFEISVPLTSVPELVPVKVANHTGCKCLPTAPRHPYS
Description: as §4

[20] = target: T1, recombinant human VEGF165; experiment: Biacore on VEGF165 (Example 5.5)
Description: as §2

[21] = target: VEGF; experiment: cell-based or functional assay; remark: listed apart in the source
[22] = target: T1, recombinant human VEGF165; experiment: VEGF165/VEGFR2 blocking AlphaScreen
[23] = target: T8, mAng2; experiment: competition ELISA, blocking of mAng2 binding to mTie2
T8 construct: also called mouse Ang2
T8 chain: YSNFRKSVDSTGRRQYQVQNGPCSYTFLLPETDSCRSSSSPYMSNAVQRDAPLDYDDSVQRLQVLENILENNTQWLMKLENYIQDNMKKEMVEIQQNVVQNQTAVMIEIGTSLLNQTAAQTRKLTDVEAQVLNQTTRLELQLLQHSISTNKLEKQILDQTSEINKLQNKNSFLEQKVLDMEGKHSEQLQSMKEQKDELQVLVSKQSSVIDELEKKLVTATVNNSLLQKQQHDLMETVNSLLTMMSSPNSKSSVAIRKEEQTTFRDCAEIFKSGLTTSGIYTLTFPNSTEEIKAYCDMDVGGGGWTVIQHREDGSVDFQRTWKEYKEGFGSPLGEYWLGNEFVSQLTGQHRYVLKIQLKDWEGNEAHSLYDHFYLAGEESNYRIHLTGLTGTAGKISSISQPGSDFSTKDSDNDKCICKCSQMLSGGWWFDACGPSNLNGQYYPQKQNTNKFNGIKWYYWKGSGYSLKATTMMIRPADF

[24] = target: T9, hAng2; experiment: competition ELISA, blocking of hAng2 binding to hTie2
T9 construct: also called human Ang2
T9 chain: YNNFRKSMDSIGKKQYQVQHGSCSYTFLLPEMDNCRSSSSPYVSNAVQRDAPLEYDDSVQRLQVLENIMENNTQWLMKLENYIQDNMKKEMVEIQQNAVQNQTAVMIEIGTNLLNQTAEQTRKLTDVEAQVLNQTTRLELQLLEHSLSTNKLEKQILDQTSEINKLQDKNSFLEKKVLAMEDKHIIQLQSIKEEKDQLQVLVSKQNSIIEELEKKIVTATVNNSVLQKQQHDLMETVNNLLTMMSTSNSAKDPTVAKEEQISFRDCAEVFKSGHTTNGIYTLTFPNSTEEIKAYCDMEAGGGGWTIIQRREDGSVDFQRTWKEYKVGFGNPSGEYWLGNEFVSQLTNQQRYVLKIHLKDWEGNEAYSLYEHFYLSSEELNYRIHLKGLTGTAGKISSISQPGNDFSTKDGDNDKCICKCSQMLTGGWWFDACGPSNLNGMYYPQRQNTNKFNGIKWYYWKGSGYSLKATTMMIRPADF

B1: VEGFBII024 (VHH)
chain: EVQLVESGGGLVQTGDSLRLSCEVSGRTFSSYSMGWFRQAQGKEREFVVAISKGGYKYDSVSLEGRFTISKDNAKNTVYLQINSLKPEDTAVYYCASSRAYGSSRLRLADTYEYWGQGTQVTVSSGGGGSGGGGSGGGGSGGGGSGGGGSGGGGSGGGGSGGGGSEVQLVESGGGLVQAGGSLRLSCTASGSAFKSYRMGWFRRTPGKEDEFVASISWTYGSTFYADSVKGRFTMSRDKAKNAGYLQMNSLKPEDTALYYCAAGAQSDRYNIRSYDYWGQGTQVTVSS
notes: biparatopic bivalent VHH in one chain; also called VEGFBII23B04-40GS-86H09; VEGFBI024
For B1, the IC50 [1] was 0.012 nM, the kon [2] was 300000 M⁻¹ s⁻¹ and the “% inhibition, VEGF HUVEC Erk phosphorylation assay” value [3] was 94%. For the same binder, the “IC50 (nM), VEGF HUVEC Erk phosphorylation assay” value [3] was 0.23 nM, the “% inhibition, VEGF HUVEC proliferation assay” value [4] was 96% and the “IC50 (nM), VEGF HUVEC proliferation assay” value [4] was 0.38 nM. The EC50 [5] was 0.32 nM, the “% inhibition” value [6] was 98% and the IC50 [6] was 0.069 nM. For the same binder, the binding result [7] was “no binding (tested: 5e-7 M)”, the “% inhibition” value [8] was 100% and the IC50 [8] was 0.046 nM. The binding result [9] was “no binding (tested: 5e-7 M)”, the koff [10] was 0.013 s⁻¹ and the Kd [11] was 0.47 nM. The “% inhibition” value [12] was 92%, the IC50 [12] was 0.326 nM and the “% inhibition” value [13] was 100%. The IC50 [13] was 0.292 nM, the binding result [14] was “no binding (tested: 5e-7 M)” and the EC50 [15] was 0.325 nM. For the same binder, the ka2 [16] was 0.026 s⁻¹, the kd2 [16] was 0.00028 s⁻¹ and the binding result [17] was “binds”. The “% inhibition” value [18] was 100%, the IC50 [18] was 0.05 nM and the binding result [19] was “no binding (tested: 5e-7 M)”.

B2: VEGFBII037 (VHH)
VHH: DVQLVESGGGLVQPGGSLRLSCAASGRTFSSYSMGWFRQAPGKEREFVVAISKGGYKYDAVSLEGRFTISRDNAKNTVYLQMNSLRPEDTAVYYCASSRAYGSSRLRLADTYEYWGQGTLVTVSS
notes: also called VEGFBII0037
For B2, the Kd [20] was 0.27 nM, the “% inhibition, VEGF HUVEC proliferation assay” value [21] was 78% and the “IC50 (nM), VEGF HUVEC proliferation assay” value [21] was 1.54 nM. For the same binder, the “% inhibition” value [22] was 100% and the IC50 [22] was 0.3 nM.

B3: ANGBII00002 (VHH)
bivalent VHH: EVQLVESGGGLVQAGGSLRLSCAASGFTFDDYALGWFRQAAGKEREGVSCIRCSDGSTYYADSVKGRFTISSDNAKNTVYLQMNSLKPEDTAVYYCAASIVPRSKLEPYEYDAWGQGTLVTVSSGGGGSGGGGSGGGGSGGGGSGGGGSGGGGSGGGGSGGGGSEVQLVESGGGLVQAGGSLRLSCAASGFTFDDYALGWFRQAAGKEREGVSCIRCSDGSTYYADSVKGRFTISSDNAKNTVYLQMNSLKPEDTAVYYCAASIVPRSKLEPYEYDAWGQGTLVTVSS
notes: homodimeric anti-Ang2 VHH; also called 1D01-40gs-1D01
For B3, the “IC50 (read off the curve)” value [23] was roughly 0.03 nM and the “IC50 (read off the curve)” value [24] was roughly 0.02 nM.
